According to PMC7363144, “Cryo-electron microscopy structure and potential enzymatic function of human six-transmembrane epithelial antigen of the prostate 1 (STEAP1)” (The Journal of Biological Chemistry, 2020):
Positions count from the first letter of the chain named. Numbers in names are those of the source.

B1: Fab120.545 mutant R32LE (Fab, V domains shown)
VH: DVQVQESGPGLVKPSQSLSLTCTVTGYSITSDYAWNWIRQFPGNKLEWMGYISNSGSTSYNPSLKSRISITRDTSKNQFFLQLISVTTEDTATYYCARERNYDYDDYYYAMDYWGQGTTLTVSA
VL: DIVMSQSPSSLAVSVGEKVTMSCKSSQSLLYESNQKNYLAWYQQKPGQSPKLLIYWASTRESGVPDRFTGSGSGTDFTLTISSVKAEDLAVYYCQQYYNYPRTFGGGTKLEIK
notes: as the heavy chain of m2; variable region in PDB 6Y9B; as the light chain of m2 with R32E; variable region of the parent in PDB 6Y9B; source: gift from Genmab BV, produced at the authors' request
B2: Fab120.545 mutant N99LD (Fab, V domains shown)
VH: B1 VH
VL: B1 VL with E32R, N99D
notes: as the heavy chain of m2; variable region in PDB 6Y9B; as the light chain of m2 with N99D; variable region of the parent in PDB 6Y9B; source: gift from Genmab BV, produced at the authors' request
B3: Fab120.545 mutant D103HN,D105HN,D106HN (Fab, V domains shown)
VH: B1 VH with D103N, D105N, D106N
VL: B1 VL with E32R
notes: as the heavy chain of m2 with D103N, D105N, D106N; variable region of the parent in PDB 6Y9B; as the light chain of m2; variable region in PDB 6Y9B; also called Fab-NNN; source: gift from Genmab BV, produced at the authors' request
B4: Fab120.545 mutant D103HA,D105HA,D106HA (Fab, V domains shown)
VH: B1 VH with D103A, D105A, D106A
VL: B1 VL with E32R
notes: as the heavy chain of m2 with D103A, D105A, D106A; variable region of the parent in PDB 6Y9B; as the light chain of m2; variable region in PDB 6Y9B; also called Fab-AAA; source: gift from Genmab BV, produced at the authors' request

Target: T1, six-transmembrane epithelial antigen of the prostate 1 (STEAP1), full-length human, C-terminal Strep-tag (Homo sapiens)
T1 construct: human STEAP1, UniProtKB Q9UHE8, full length; codon-optimized DNA from GeneArt; Homotrimer in the cryo-EM structure; in digitonin micelles; The PDB model holds residues 67-312 only; source: HEK293 GnTI- suspension cells, purified in digitonin (Strep-Tactin resin, SEC)
Assay: SEC; 25 µl STEAP1 (0.28 mg/ml) mixed with a ~2-fold molar excess of Fab variant (35 µl at 0.5 mg/ml), several hours, Superdex 200 increase 3.2/300, 20 mM Tris pH 7.8, 200 mM NaCl, 0.08% digitonin; heme absorbance at 412 nm and tryptophan fluorescence
Conditions: both partners purified

T1 sequence (Q9UHE8 2-339): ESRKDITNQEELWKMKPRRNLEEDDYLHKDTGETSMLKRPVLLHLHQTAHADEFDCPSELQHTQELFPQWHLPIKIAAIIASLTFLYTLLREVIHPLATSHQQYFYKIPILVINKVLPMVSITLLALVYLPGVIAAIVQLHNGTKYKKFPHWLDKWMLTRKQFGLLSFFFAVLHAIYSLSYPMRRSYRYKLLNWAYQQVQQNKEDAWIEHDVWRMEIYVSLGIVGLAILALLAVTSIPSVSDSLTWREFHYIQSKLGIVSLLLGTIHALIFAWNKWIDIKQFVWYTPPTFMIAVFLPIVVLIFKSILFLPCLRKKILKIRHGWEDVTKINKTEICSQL

Binder | binding result
B1 | no binding
B2 | no binding
B3 | no binding
B4 | no binding
